Experimental data as given in paper doi:10.64898/2025.12.15.694443.

Biological target: BRAF kinase domain (his6-BRAF^445-723-intein, intein cleaved) (human) (UniProt P15056)
Experiment: mass photometry

## BRAF kinase domain (his6-BRAF^445-723-intein, intein cleaved) (from UniProt P15056 445-723) (domain or fragment)
  stoichiometry N: 2
